According to article PMC6486591:

Columns and labels:
[1] = target: YenA2 (Yersinia entomophaga) (UniProt B6A878); test: cryo-EM structure; YenTcA soluble pre-pore form, single-particle cryo-EM, 4.4 Å average resolution, C5 symmetry; 0.1 mg/mL in 25 mM Tris, 150 mM NaCl, pH 7.5, with 10 mM NDSB-195
[2] = target: YenA2 (Yersinia entomophaga) (UniProt B6A878); test: cryo-EM structure; YenTcA pore form inserted into POPC liposomes (1:2 w/w, 3-5 freeze/thaw cycles), single-particle cryo-EM, 11 Å resolution

Sequence of YenA2 (B6A878 whole entry): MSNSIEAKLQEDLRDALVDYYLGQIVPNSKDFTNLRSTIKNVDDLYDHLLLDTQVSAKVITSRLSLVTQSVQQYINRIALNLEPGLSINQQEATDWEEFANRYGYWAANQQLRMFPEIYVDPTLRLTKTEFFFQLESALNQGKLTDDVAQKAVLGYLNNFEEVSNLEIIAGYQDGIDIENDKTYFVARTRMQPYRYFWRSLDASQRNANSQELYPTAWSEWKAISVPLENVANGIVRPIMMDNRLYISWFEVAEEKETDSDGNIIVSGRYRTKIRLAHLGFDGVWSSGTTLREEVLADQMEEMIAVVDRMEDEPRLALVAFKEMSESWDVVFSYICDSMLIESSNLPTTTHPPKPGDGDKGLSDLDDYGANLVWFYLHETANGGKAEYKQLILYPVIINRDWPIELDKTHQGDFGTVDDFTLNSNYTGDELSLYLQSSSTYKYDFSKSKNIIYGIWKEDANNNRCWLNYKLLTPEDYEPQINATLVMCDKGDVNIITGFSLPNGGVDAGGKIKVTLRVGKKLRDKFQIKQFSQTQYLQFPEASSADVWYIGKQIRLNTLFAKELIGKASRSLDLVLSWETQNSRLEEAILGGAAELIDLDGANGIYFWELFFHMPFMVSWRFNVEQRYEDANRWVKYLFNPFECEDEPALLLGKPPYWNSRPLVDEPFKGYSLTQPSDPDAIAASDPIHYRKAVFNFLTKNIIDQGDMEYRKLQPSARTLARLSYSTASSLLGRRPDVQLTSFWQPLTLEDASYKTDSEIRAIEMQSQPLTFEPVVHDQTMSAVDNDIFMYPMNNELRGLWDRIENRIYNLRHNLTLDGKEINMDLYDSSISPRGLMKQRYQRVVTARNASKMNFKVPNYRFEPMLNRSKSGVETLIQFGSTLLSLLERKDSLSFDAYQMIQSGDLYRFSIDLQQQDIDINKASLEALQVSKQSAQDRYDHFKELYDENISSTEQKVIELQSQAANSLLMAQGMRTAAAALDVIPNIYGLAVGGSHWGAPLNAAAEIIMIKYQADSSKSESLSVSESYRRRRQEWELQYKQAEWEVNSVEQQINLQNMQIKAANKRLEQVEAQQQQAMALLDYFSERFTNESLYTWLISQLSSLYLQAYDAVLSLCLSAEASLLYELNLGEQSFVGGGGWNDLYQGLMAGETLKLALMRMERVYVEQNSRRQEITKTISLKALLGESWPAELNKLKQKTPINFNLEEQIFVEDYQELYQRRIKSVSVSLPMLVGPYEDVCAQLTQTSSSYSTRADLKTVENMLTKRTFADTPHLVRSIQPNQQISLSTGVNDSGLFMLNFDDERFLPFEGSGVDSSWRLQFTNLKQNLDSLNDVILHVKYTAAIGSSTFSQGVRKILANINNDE

Substance “YenA2 (from UniProt B6A878 1-1364) (natural protein)” has a stoichiometry N [1] of 5 and a stoichiometry N [2] of 5.
